# Test results reported in publication PMC7278562, “A high‐affinity, bivalent PDZ domain inhibitor complexes PICK1 to alleviate neuropathic pain” (EMBO Molecular Medicine, 2020).
# Ends that are not written are not given here. Peptide text beside a SMILES is read from it. * marks the point of attachment. 3‑phenylpropyl = c1ccc(CCC*)cc1; Cyclohexylmethyl = C1CCC(C*)CC1; Bn = c1ccc(C*)cc1
# What was measured:
# [1] = system: mechanical allodynia in SNI mice; assay: Spared nerve injury (SNI) model, von Frey paw withdrawal threshold; type: in vivo
# [2] = 20 μM i.t.; for presence in spinal cord after i.t. injection: naïve mice, 1 h after injection, fluorescence
# Procedure: All spinal cords were isolated by hydraulic extrusion and post‐fixed in PFA 4% for 8 h. Spinal cords were subsequently cryoprotected in 30% sucrose, embedded in Tissue‐Tek® OCT, and sliced at 20 μm thickness by Cryostat Leica CM3050 S.
# Epifluorescence microscopy was performed using a Zeiss axioscan.Z1, with a plan‐apochromat 10×/0.45 objective (Carl Zeiss). […] All channels were imaged covering a total of around 6 μm of the 20‐μm‐thick spinal cord slices.
# [3] = molecular target: PICK1 (protein interacting with C kinase) (rat) (UniProt Q9EP80); assay: fluorescence polarisation; competition; fixed PICK1 and a fluorescent tracer (not named for this series) against increasing unlabeled peptide; 20 min on ice; Ki by Cheng-Prusoff
# PICK1 [4] = molecular target: T1, PICK1 (Rattus norvegicus, UniProt Q9EP80); settings: best-known binder of the PICK1 PDZ domain; ref Madsen et al, 2005; cited from earlier work
# T1 construct: GST (inferred from pET41 and Glutathione-Sepharose capture) (cleaved yes); made in house; host or cells: Escherichia coli BL21-DE3-pLysS
# Source text: To this end, we took advantage of a fluorescence polarization (FP) competition assay using a fluorescent tracer peptide corresponding to the C‐terminal 11 residues of the DAT (OrG‐C11) (Fig EV1A).
# [5] = molecular target: PICK1 (protein interacting with C kinase 1), purified recombinant rat (rat) (UniProt Q9EP80); assay: fluorescence polarisation; competition (Ki with SEM interval); tracer and conditions not stated
# [6] = molecular target: PICK1 (protein interacting with C kinase) (rat) (UniProt Q9EP80); assay: SEC; analytical SEC of purified PICK1 (40 uM in the titration) alone or incubated with peptide; absorbance at 280 nm and, for the TMR peptide, 544/546 nm
# [7] = molecular target: PICK1 (protein interacting with C kinase) (rat) (UniProt Q9EP80); assay: fluorescence polarisation
# [8] = molecular target: PICK1 (protein interacting with C kinase) (rat) (UniProt Q9EP80); assay: fluorescence polarisation; remark: listed apart in the source
# PICK1 [9] = molecular target: T1, PICK1; assay: FP saturation binding; settings: Appendix Fig S2, n = 3
# Procedure: Protein expression was induced with 1 mM IPTG and grown overnight at 20°C. […] 1 l culture at pH 7.4. Suspended pellet was frozen at −80°C. The bacterial suspension was thawed and cleared by centrifugation (F20 rotor, 36,000 × g for 30 min at 4°C). The supernatant was collected and incubated with Glutathione‐Sepharose 4B beads (GE Healthcare) for 2 h at 4°C under gentle rotation. […] Washed beads were transferred to a PD10 gravity column and were washed additionally three times. Bead solution was incubated with thrombin overnight at 4°C under gentle rotation.
# The data were plotted using GraphPad Prism 8.3 and fitted to either a sigmoidal dose response for saturation experiments or One site competition for competition experiments. Kis were automatically calculated using the Cheng–Prusoff equation.
# hippocampal neurons = assay: Membrane permeability in dissociated hippocampal neurons (confocal, DiO membrane dye); settings: 21 DIV neurons, 1 h, 37°C, 5 μM TMR-labeled peptide (legend: TMR-C5 20 μM), confocal fluorescence
# [10] = molecular target: DAT C13 C-terminal 13 residues (Homo sapiens) (UniProt Q01959); settings: cited from earlier work
# Plasma stability = type: in vitro ADME; settings: human plasma (3H biomedical) with 2% DMSO, 50 μM peptide, 37°C, GnHCl/TCA-acetone work-up, C8 RP-HPLC (UPLC), normalized to T = 0, mean, n ≥ 3, read-out: peptide remaining after incubation with human plasma
# Procedure: The peptides were dissolved to a final concentration of 50 μM in human plasma (3H biomedical, Uppsala, Sweden) containing 2% DMSO and incubated at 37°C. Aliquots (45 μl) were added directly to 26 mg guanidine hydrochloride (GnHCl), vortexed, and incubated for 2 min. 90 μl of 10% trichloroacetic acid (TCA) in acetone was then added, and the suspension was incubated at 5°C for 24 h.
# The suspension was centrifuged at 18,000 g for 5 min. The supernatants were quantified by analytical C8 RP‐HPLC and normalized to the compound concentration at T = 0. Ligand recovery was > 82%.
# [11] = molecular target: OrG-C11, Oregon Green labelled C-terminal 11 residues of the dopamine transporter; assay: fluorescence polarisation; saturation; fluorescent peptide fixed at 20 nM, increasing PICK1; 0.01% Triton X-100 (PICK1 a dimer); KD from a log dose-response fit
# [12] = molecular target: Org-GluA2 C11, Oregon Green labelled C-terminal 11 residues of GluA2; assay: as above
# Sequence of PICK1 PDZ (Q9NRD5 19-108): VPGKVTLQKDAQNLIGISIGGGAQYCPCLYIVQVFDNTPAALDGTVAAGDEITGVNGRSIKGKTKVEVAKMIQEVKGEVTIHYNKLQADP
molecule,measurement,setting,value
NCC1(CC(=O)O)CCCCC1 [gabapentin],efficacy 14 days after nerve injury,"[1]; i.p. 30 mg/kg, chronic phase, n = 4 per gender",comparable efficacy
same,ipsilateral paw threshold,"[1]; i.p. 30 mg/kg, initiation stage (2 days after injury), at 1, 2, 3 h, n = 4 mice",full recovery
TMR‐Ahx‐YGRKKRRQRRR‐HWLKV [TMR-Tat-C5],presence in spinal cord after i.t. injection,[2],clearly visible in both the ventral and dorsal parts of the spinal cord
P4‐(C5)2 (peptide),Ki,[3],0.098 µM
CC(C)C[C@H](NC(=O)[C@H](Cc1c[nH]c2ccccc12)NC(=O)[C@H](Cc1c[nH]cn1)NC(=O)[C@H](CCCNC(=N)N)NC(=O)[C@H](CC(C)C)NC(=O)[C@@H](NC(=O)[C@H](Cc1ccccc1)NC(=O)[C@H](CCC(N)=O)NC(=O)[C@H](CCCNC(=N)N)NC(=O)[C@@H](NC(=O)[C@@H](N)CCC(=O)O)C(C)C)[C@@H](C)O)C(=O)N[C@@H](CCCCN)C(=O)N[C@H](C(=O)O)C(C)C [DAT C13] (H-EVRQFTLRHWLKV-OH),Ki,PICK1 [4],1 µM
"DAT C3 peptide, N-acetylated, R = COCH3",Ki,[5],3.8 µM
Tat‐P4‐(C5)2 (peptide),stoichiometry N (Tat‐P4‐(C5)2 per PICK1),[6],0.25
same,Ki,[7],0.0062 µM
same,fold affinity gain over C5,[7],> 300 fold
same,Ki,[8],0.0017 µM
CC(C)C[C@H](NC(=O)[C@H](Cc1c[nH]c2ccccc12)NC(=O)[C@H](Cc1c[nH]cn1)NC(=O)CCOCCOCCN(CCOCCOCCC(=O)N[C@@H](Cc1c[nH]cn1)C(=O)N[C@@H](Cc1c[nH]c2ccccc12)C(=O)N[C@@H](CC(C)C)C(=O)N[C@@H](CCCCN)C(=O)N[C@H](C(=O)O)C(C)C)C(=O)[C@H](CCCNC(=N)N)NC(=O)[C@H](CCCNC(=N)N)NC(=O)[C@H](CCCNC(=N)N)NC(=O)[C@H](CCC(N)=O)NC(=O)[C@H](CCCNC(=N)N)NC(=O)[C@H](CCCNC(=N)N)NC(=O)[C@H](CCCCN)NC(=O)[C@H](CCCCN)NC(=O)[C@H](CCCNC(=N)N)NC(=O)CNC(=O)[C@H](Cc1ccc(O)cc1)NC(=O)c1ccc2c(c1)C(=O)OC21c2ccc(N(C)C)cc2Oc2cc(N(C)C)ccc21)C(=O)N[C@@H](CCCCN)C(=O)N[C@H](C(=O)O)C(C)C [TMR-Tat-P4-(C5)2],affinity from saturation binding curves,PICK1 [9],low nanomolar affinity
same,time of maximal accumulation in cells,"[2]; SNI mice, time points 0, 30, 60, 120 min",60 min
same,cell type of peptide signal in gray matter,"[2]; SNI mice, NeuN and GFAP staining",exclusively confined toward neurons
same,presence in spinal cord after i.t. injection,[2],clearly visible in both the ventral and dorsal parts of the spinal cord
same,membrane penetration / labeling of neurons,hippocampal neurons,labeled neurons
PEG12‐(HWLKV)2 (peptide),fold increase in affinity over C5,[3],> 10 fold
"DAT C3 peptide, no modification",Ki,[5],4.1 µM
"DAT C3 peptide, N-alkylated, R = CH3",Ki,[5],9.38 µM
"DAT C3 peptide, N-alkylated, R drawn (cyclohexylmethyl)",Ki,[5],6.82 µM
PICK1 PDZ (from UniProt Q9NRD5),Ki,[10],1 µM
CC(C)C[C@H](NC(=O)[C@H](Cc1c[nH]c2ccccc12)NC(=O)[C@H](Cc1cnc[nH]1)NC(=O)[C@H](CCCNC(=N)N)NC(=O)[C@H](CCCNC(=N)N)NC(=O)[C@H](CCCNC(=N)N)NC(=O)[C@H](CCC(N)=O)NC(=O)[C@H](CCCNC(=N)N)NC(=O)[C@H](CCCNC(=N)N)NC(=O)[C@H](CCCCN)NC(=O)[C@H](CCCCN)NC(=O)[C@H](CCCNC(=N)N)NC(=O)CNC(=O)[C@@H](N)Cc1ccc(O)cc1)C(=O)N[C@@H](CCCCN)C(=O)N[C@H](C(=O)O)C(C)C [Tat-C5],"remaining at 24 h, 50 μM",Plasma stability,~5%
PEG0‐(HWLKV)2 (peptide),fold increase in affinity over C5,[3],> 10 fold
P28‐(C5)2 (peptide),Ki,[3],0.593 µM
PEG8‐(HWLKV)2 (peptide),fold increase in affinity over C5,[3],> 10 fold
CCOC(=O)NC(=O)/C(C#N)=C/c1ccc(Cl)c(Cl)c1 [FSC231],effect on PWT / ipsilateral paw hypersensitivity,"[1]; i.t. 20 μM, initiation stage (2 days after injury), n = 8 mice/group",did not significantly change PWT
"PICK1 (protein interacting with C kinase 1), purified recombinant rat (from UniProt Q9EP80 1-416) (natural protein)",Kd,[11],0.44 µM
same,Kd,[12],1.53 µM
"WLKV [DAT C4 peptide, no modification]",Ki,[5],5.69 µM
"methyl-WLKV [DAT C4 peptide, N-alkylated, R = CH3]",Ki,[5],18.8 µM
"Et-WLKV [DAT C4 peptide, N-alkylated, R = CH2CH3]",Ki,[5],30 µM
"{n‑propyl}-WLKV [DAT C4 peptide, N-alkylated, R = (CH2)2CH3]",Ki,[5],46.6 µM
"{n‑butyl}-WLKV [DAT C4 peptide, N-alkylated, R = (CH2)3CH3]",Ki,[5],45.3 µM
"Cyclohexylmethyl-WLKV [DAT C4 peptide, N-alkylated, R drawn (cyclohexylmethyl)]",Ki,[5],15.1 µM
"{2‑cyclohexylethyl}-WLKV [DAT C4 peptide, N-alkylated, R drawn (2-cyclohexylethyl)]",Ki,[5],31.8 µM
"Bn-WLKV [DAT C4 peptide, N-alkylated, R drawn (benzyl)]",Ki,[5],24.5 µM
"{2‑phenylethyl}-WLKV [DAT C4 peptide, N-alkylated, R drawn (2-phenylethyl)]",Ki,[5],26.2 µM
"{3‑phenylpropyl}-WLKV [DAT C4 peptide, N-alkylated, R drawn (3-phenylpropyl)]",Ki,[5],38.6 µM
"{2‑(naphthyl)ethyl}-WLKV (not fully specified) [DAT C4 peptide, N-alkylated, R drawn (2-naphthylethyl)]",Ki,[5],48 µM
"Ac-WLKV [DAT C4 peptide, N-acetylated, R = COCH3]",Ki,[5],3.49 µM
